Measured values published in patent publication US6673902B2, “Cyclin D binding factor, and uses thereof” (St. Jude Children's Research Hospital, priority 1996, dated 2004).
One block for each molecule: values may come before it.

How the values were obtained:
wild-type MEFs = assay: Apoptosis assay in wild-type MEFs deprived of serum; assay type: cell-based, mouse
Description: Apoptosis assays. Wild-type MEFs infected with the indicated retroviruses for 36 hours were starved for serum for 24 hours. Viability was determined by trypan blue dye exclusion, and DNA fragmentation was monitored by a terminal deoxynuclectidyl transferase (FACS-TUNEL) assay and by measurement of subdiploid DNA content of propidium iodide-stained nuclei [Zindy et al., Genes Dev. 12:2424-2433 (1998)].
On the other hand, MEFs overexpressing c-Myc, E2F-1, or E1A are exquisitely sensitive to apoptosis. […] 12:2424-2433 (1998); De Stanchina et al., Genes Dev. 12:2434-2442 (1998)].

[1] = test system: 281 bp ARF promoter fragment; assay: Transactivation of ARF promoter-luciferase reporter in NIH-3T3 cells; assay type: cell-based, mouse; conditions: NIH-3T3, 281 bp ARF promoter fragment-luciferase
Description: Transactivation assays. NIH-3T3 cells were transfected with 4 μg of pGL2-ARFpro BamHI or its DMP1 binding site mutant, with or without increasing amount of pFLEX-DMP1, pEVRFO-Ets1, pCMV-Ets2, pRcRSV-Elfl, pdEB-Fli1, p(IEB-EWS-Fli1 or pCMV-E2F-1 (89-437), and 4 μg β-actin SEAP control vectors [Inoue and Sherr, Mol. Cell. Biol. 18: 1590-1600 (1998); Inoue et al., J. Biol. Chem. 273:29188-29194 (1998); Davis and Roussel, Gene 171:265-269 (1996); Baily et al., Mol. Cell. Biol. 14:3230-3241 (1994)]. Transfections and normalization of luciferase levels with internal control SEAP levels were performed as described [Inoue and Sherr, Mol. Cell. Biol. 18:1590-1600 (1998)].
Similarly, DMP1 deletion mutants defective in transactivation [Inoue and Sherr, Mol. Cell. […] Mutation of the DMP1 binding site within the ARF promoter [changing CCCGGATGC, (SEQ ID NO:33) to CCCGTCGAC, (SEQ ID NO:42)] also completely abolished transactivation by wild-type DMP1 (FIG. 14C, mutant reporter). Therefore, sequences within the −189 to −181 ARF promoter segment were the only ones responsible for DMP1-mediated transactivation. Although Ets1 could bind to a 23 base pair oligonucleotide containing the DMP1 consensus site (FIG. 14B), several Ets proteins were unable to induce significant reporter gene expression from the more complex 281 base pair ARF promoter (FIG. 14C). […]

p19ARF = assay: Induction of endogenous p19ARF protein in retrovirus-infected MEFs; assay type: cell-based, mouse; conditions: early passage MEFs, retroviral infection
Description: Virus production and infection. Human kidney 293T cells were transfected with a helper ecotropic retrovirus plasmid defective in psi-2 packaging sequences, together with pSRα vectors containing murine DMP1, human c-Myc, human E2F-1, or human Ets1 cDNAs [Zindy, et al., Genes Dev. 12:2424-2433 (1998); Inoue and Sherr, J. Biol. Chem. 273:29188-29194 (1998)]. Viruses were harvested every 6 hours 24-72 hours after transfection, filtered and stored at 4° C. until used for infection [Zindy, et al., Genes Dev. 12:2424-2433 (1998)]. In order to construct a retroviral vector containing DMP1 linked to a mutated tamoxifen-responsive element of the estrogen receptor (DMP1-ER™), a 3′ 0.3 kb EcoNI DNA fragment of murine DMP1 cDNA was amplified by PCR using
RNA and protein expression. Quantitative RT-PCRs employed specific primers for murine ARF exon 1β (30 cycles) and for β-actin (20 cycles) used as a control [Zindy et al., Oncogene 15:203-211 (1997)]. […]
Based on the above observations, it was determined as to whether introduction of DMP1 would induce synthesis of the endogenous ARF protein in normal diploid fibroblast strains. […] Although the blot was normalized for protein input, the levels of p19^ARF induced by DMP1 were calculated to be 2-fold higher than those induced by Myc, because fewer cells were productively infected with the DMP1 virus in this experiment (see FIG. 15A).

D-type cyclins = target: T1, D-type cyclins (Mus musculus, UniProt P25322); assay: In vitro binding of [35S]methionine-labeled D-type cyclins to GST fusion proteins; conditions: cyclin D1
T1 construct: made in house; host or cells: in vitro transcription (Stratagene) and translation (rabbit reticulocyte system, Promega)
T1 sequence (P25322 whole entry, the tested form may be a part): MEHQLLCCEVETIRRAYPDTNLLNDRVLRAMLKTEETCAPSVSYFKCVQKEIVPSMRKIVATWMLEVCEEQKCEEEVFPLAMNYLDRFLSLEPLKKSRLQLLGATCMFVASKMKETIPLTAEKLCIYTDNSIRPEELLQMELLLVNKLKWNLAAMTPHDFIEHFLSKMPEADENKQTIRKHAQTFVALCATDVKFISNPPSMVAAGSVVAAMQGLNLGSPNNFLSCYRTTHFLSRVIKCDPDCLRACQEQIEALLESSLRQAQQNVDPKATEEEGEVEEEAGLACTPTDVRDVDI
Description: A BglII fragment encoding amino acids 176-761 of DMP1 (FIG. 1) is subcloned into the BamHI site of the pGEX-3X plasmid (Pharmacia, Uppsala Sweden), and overnight cultures of transformed bacteria are diluted 10-fold with fresh medium, cultured for 2-4 more hours at 37° C., and induced with 1 mM isopropyl-β-D-thiogalactopyranoside (IPTG) for 1 hour. Induced bacteria are lysed by sonication in phosphate-buffered saline (PBS) containing 1% Triton X-100, and recombinant glutathione-S-transferase (GST)-DMP1 protein is purified by absorption and elution from glutathione-Sepharose beads as described (35). […] After 2 hours at 4° C., the beads are collected by centrifugation, washed 4 times with IP Kinase buffer, and the bound proteins are denatured and analyzed by electrophoresis on 11% polyacrylamide gels containing sodium dodecyl sulfate (SDS) (1).
Because DMP1 interacted with cyclin D2 in yeast, the ability of a glutathione S-transferase (GST)-DMP1 fusion protein to bind D-type cyclins in vitro is examined. […] Bound cyclins recovered on washed glutathione-Sepharose beads are analyzed by electrophoresis on denaturing gels. […] GST-DMP1 is less efficient than GST-RB in binding cyclins D2 and D3 (˜4-fold less binding), and under these conditions, an interaction with D1 is not detected (lanes 3, 7, 11). […]

B1: ARF: ARF tumor suppressor protein (protein)
chain: MGRRFLVTVRIQRAGRPLQERVFLVKFVRSRRPRTASCALAFVNMLLRLERILRRGPHRNPGPGDDDGQRSRSSSSAQLRCRFELRGPHYLLPPGARRSAGRLPGHAGGAARVRGSAGCARCLGSPAARLGPRAGTSRHRAIFAFRWVLFVFRWVVFVYRWERRPDRRA
apoptosis / cell death (wild-type MEFs): did not trigger apoptosis

B2: Fli1: Ets family member (protein, UniProt P26323 1-452, looked up)
Friend leukemia integration 1 …: MDGTIKEALSVVSDDQSLFDSAYGAAAHLPKADMTASGSPDYGQPHKINPLPPQQEWINQPVRVNVKREYDHMNGSRESPVDCSVSKCNKLVGGGEANPMNYNSYMDEKNGPPPPNMTTNERRVIVPADPTLWTQEHVRQWLEWAIKEYGLMEIDTSFFQNMDGKELCKMNKEDFLRATSAYNTEVLLSHLSYLRESSLLAYNTTSHTDQSSRLNVKEDPSYDSVRRGAWNNNMNSGLNKSPLLGGSQTMGKNTEQRPQPDPYQILGPTSSRLANPGSGQIQLWQFLLELLSDSANASCITWEGTNGEFKMTDPDEVARRWGERKSKPNMNYDKLSRALRYYYDKNIMTKVHGKRYAYKFDFHGIAQALQPHPTETSMYKYPSDISYMPSYHAHQQKVNFVPSHPSSMPVTSSSFFGAASQYWTSPTAGIYPNPSVPRHPNTHVPSHLGSYY
ARF promoter reporter gene expression [1]: minimal activity

B3: Myc: known rapid inducer of p19ARF protein expression used as positive control (protein, UniProt P01108 1-454, looked up)
Myc proto-oncogene protein: MDFLWALETPQTATTMPLNVNFTNRNYDLDYDSVQPYFICDEEENFYHQQQQSELQPPAPSEDIWKKFELLPTPPLSPSRRSGLCSPSYVAVATSFSPREDDDGGGGNFSTADQLEMMTELLGGDMVNQSFICDPDDETFIKNIIIQDCMWSGFSAAAKLVSEKLASYQAARKDSTSLSPARGHSVCSTSSLYLQDLTAAASECIDPSVVFPYPLNDSSSPKSCTSSDSTAFSPSSDSLLSSESSPRASPEPLVLHEETPPTTSSDSEEEQEDEEEIDVVSVEKRQTPAKRSESGSSPSRGHSKPPHSPLVLKRCHVSTHQHNYAAPPSTRKDYPAAKRAKLDSGRVLKQISNNRKCSSPRSSDTEENDKRRTHNVLERQRRNELKRSFFALRDQIPELENNEKAPKVVILKKATAYILSIQADEHKLTSEKDLLRKRREQLKHKLEQLRNSGA
ARF protein synthesis (p19ARF): induced ARF protein synthesis
apoptosis / cell death (wild-type MEFs): induced cell death

interaction with D1 (D-type cyclins): not detected
B4: GST-DMP1: GST fused to residues 176-761 of DMP1, bacterially synthesized (protein)
chain: GIKDATEIIFEMSKDERKDFYRTIAWGLNRPLFAVYRRVLRMYDDRNHVGKYTPEEIEKLKELRIKHGNDWATIGAALGRSASSVKDRCRLMKDTCNTGKWTEEEEKRLAEVVHELTSTEPGDIVTQGVSWAAVAERVGTRSEKQCRSKWLNYLNWKQSGGTEWTKEDEINLILRIAELDVADENDINWDLLAEGWSSVRSPQWLRSKWWTIKRQIANHKDVSFPVLIKGLKQLHENQKNNPVLLENKSGSGVPNSNCNSSVQHVQIRVARLEDNTAISPSPMAALQIPVQITHVSSTDSPAASADSETITLNSGTLQTFEILPSFPLQPTGTPGTYLLQTSSSQGLPLTLTTNPTLTLAAAAPASPEQIIVHALSPEHLLNTSDNVTVQCHTPRVIIQTVATEDITSSLSQEELTVDSDLHSSDFPEPPDALEADTFPDEIPRPKMTIQPSFNNAHVSKFSDQNSTELMNSVMVRTEEEIADTDLKQEEPPSDLASAYVTEDLESPTIVHQVHQTIDDETILIVPSPHGFIQASDVIDTESVLPLTTLTDPIFQHHQEASNIIGSSLGSPVSEDSKDVEDLVNCH
modifications: left off: a dimerising Fc or GST
notes: GST fused to residues 176-761 of DMP1, bacterially synthesized
